Measured values: the nanobody polyreactivity screen of Harvey et al. (2022)

Experiment: yeast display, Sf9 membrane polyspecificity reagent, FACS + sequencing; frameworks hold sequencing errors
Summary of the method: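 Using colony PCR, genes from sorted yeast display clones were amplified, then sequenced on MiSeq at 2 × 250 and filtered by CDR length. The clones had been stained with 10% biotinylated, detergent-solubilized Sf9 membrane reagent for 1 hour at 4 °C and sorted by FACS into low and high (top ~1%) gates on anti-HA and streptavidin fluorescence. Polyreactivity labels come from the gate of origin.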

Row | Sequence | polyreactivity (PSR sort gate)
1 | QVQLVESGGGLVQAGGSLRLSCAASGFTFRRYAKGWYRQATGKEREFVAAISIRGGRTNYADSVKGRFTISRDNAKNTVYLQMNSLKPEDTAVYYCAADGVYALDVESDYWGQGTQVTVSS | high polyreactivity
2 | QVQLQEIGGGLVQAGGSLRLSCAASGYIIPYYSMRWYRQAPGKERGLVACIAAGTTTNFADCVKGRFTISRDNAKNTVYLQMNSLKPEDAAVYFCAALNAFKTGDWYWGQGTQVTVSS | low polyreactivity
3 | QVQLVESGGGLVQAGGSLRLSCAASGSTFKYYAMGWYRQAPGKERELVAAISSGGSTYYADSVKGRFTISRDNAKNTVYLQMNSLKPEDTAVYYCAARGYYGKFSGSGYWGQGTQVTVSS | high polyreactivity
4 | QVQLVESGGGLVQAGGSLRLSCAASGFTFALYAMGWYRQAPGKERELVASIDNGVSTNYADSVKGRFTISRDNAKNTVYLQMTSLKPEDTAVYYCAKGPGYGLYKLLSYDSWGQGTQVTVSS | low polyreactivity
5 | QVQLVESGGGLVQAGGSLRLSCAASGRTFPCYAMGWYRQAPGKEREFVAAITASGDSTYYADSVKGRFTISRDNAKNTVYLQMNSLKPEDTAVYYCAADLPVWYVTRYDYWGQGTQVTVSS | low polyreactivity
6 | QVQLVESGGGLDQAGGSLRLSCAASGSIFEPNAMVWYRQAPGKERELVAAITGGGGTNYADSVKGRFTLSRDNAKYTVYLQMNSLKPEDTAVYYCAKEVDHGDASDMDYWGQGTQVTVSS | low polyreactivity
7 | QVQLVESVGGLVQEGGSLRLSCAASGSNFQWYAMGWYRQAPGKERELVAAIRYSGDSTYYADSVKGRFTISRDNAKNTDYLQMNSLKPEDTAVYYCAAEATTRWLLYNYWGQGTQVTVSS | high polyreactivity
8 | QVQLVESGGGLVQAGCSLRISCAASGFTFAHNEMGWSRQAPGKERELVAAISSRGGRTFYADSVKGRFTISRDNAKKTVYLQMNSLKPEDTAVDYCNRVRSVQYDYWGQGSQVTVSS | high polyreactivity
9 | QVQLVESGGGLVQAGGSLRLSCAASGSTFWPYAMGWYRQAPGKERELVAAITSSDVNTNYADSVKGRFTISRDNAKNTVYLQMNSLKPEDTAVYYCAADQYQYDPTYGYDYWGQGTQVTVSS | low polyreactivity
10 | QVQLVESGGGLVQAGGSLRLSCAASGSNFGPYAMGWSRPAPGKEMELVASITWTGGRTYYADSVKGRFTISLDNAKNTVYLQMNSLKPEDTAVYYCAADYSPSTWYLYYTLYYYWGQGTQVTVSS | low polyreactivity
11 | QVQLVESGGGLVQAGGSLRLSWAASGFIFGFYAMGWYRQAPGKERELVADITSSGGSTYYADSVKGRFTISRDNAKNTVYLQMNSLKQEDTAVYYCAADGWLHNFYPGTGLDYWGQGTQVTVSS | low polyreactivity
12 | QVQLVESGGGLVQAGGSLRLSCAASGIIFATYAMGWYRQAPGKERELVASISTGDSTNYADSVKGRFTISRDNAKNTVYLQMNSLKPEDTAVYYCNADSYPYYVYGSNDYWGQGTQVTVSS | low polyreactivity
13 | QVQLVESGGGLVQAGGSLRLSCAASGNIFLFYVMAWYRQAPGKERELVAAITLSGTNTYYADSVKGRFTISRDNAKNTVYLQMNSLKPDDTAVYYCAAEPKTYDWYPWGQVIENYWGQGTQVTVSS | low polyreactivity
14 | QVQLVESGGGLVQAGGSLRLSCAASGRIFDYNAMGWYRQAPGKERELVAAINSGGSTYADSVKGRFTISRDNAKNTVYLQMNSLKPEDTAVYYCAKSLGQTDWEYDSWGQGTQVTVSS | low polyreactivity
15 | QVQLVESGGGLVQAGGSLRLSCAASGSIFVTYAMGWYRQAPWKDWELVAAISTSGGSTYADSVKGRFTISRDNAKNTVYLQMNSLKPVDTAVYYCNADDPGYAVPWYWFKYDYWGQGTQVTVSS | low polyreactivity
16 | QVQLVESGGGLVQAGGSLRLSCAASGSIFRYNTMGWYRQAPGKERELVARISSGGSTYYADSVKGRFTISRDNAKNTVYLQMNSLKPEDTAVYYCAAVSRHRGWDRYYWGQGTQVTVSS | high polyreactivity
17 | QVQLVESVGGLDQAGGSLRLSCAASGSTFRYYVMGWYRQAPGKERELVAGITRGGSTNYADSVKGRFTISRENAKNTVYLQMNSLKPEDTAVYYCASRGGWKRPFGYQLQYDYWGQGTQLTVSS | high polyreactivity
18 | QVQLVESGGGLVQAGGSLRLTCAASGSISFGYAMGWYRQAPGKERELVAAITWSTARTYYADSVKGRFTISRDNAKNTVYLQMNSLKPEDTAVYYCAKGGYWGQGTQVTVSS | high polyreactivity
19 | QVQLVESGGGLVQAGGSLRLSCAASGRTFYYNAKGWYRQAPGKERELVARITSSGGSTYYADSVKGRFTISRDTSKNTVFLQMNSLKPEDTAVYYCAAGRSRYLWFGRDFDYWGQGTQVTVSS | low polyreactivity
20 | QVQLVESGGGLVQAGGSLRLSCAASGSIFVNNAMGWYRQAPGKERELVAAIRRGSSTNYADSVKGRFTISRDNAKNTVYLQMNSLKPEDTAVYYCAADHVDDEAQNYDYWGQGTQVTVSS | low polyreactivity
21 | QVQLVDSGGGLVQAGGSLRLSCAASGNIFRANAMGWYRQAPGKERELVAAIRWRGVGTYYADSVKGRFTISRDYAKNTVYLQINSLKPEDTAVYYCAAYVKTGAYDYWGQGTLVTVSS | high polyreactivity
22 | QVQLVESGGGLVQAGGSLRLSCAASGFTSSRNAMGWYLQAPGKEREWVATISSGGDTYYADSVKGRFTISRDNAKNTVYLQMNSLKPVDTAVYYCNKDPLYDWGYDYWGHGTQVTVSS | low polyreactivity

Row | Sequence | polyreactivity (PSR sort gate)
23 | QVHLVESGGCLVQAGGSLRLSCAASGFIFPWYAMGWYRQAPGKERELVAAISSSGGRTYYADSVKGRFTISRDNAKNTVYLQMNSLKPEDTGVYYCNVAYGLSQVYRYNYWGQGSQVTVSS | high polyreactivity
24 | QVQLVESGGGLVQAGGSLRLSCAASGSILGYYAMGWYRQAPGKERELVAAITASGGSTYYADSVKGRFTISRDNAKNTVYLQMNSLKPEDTAVYYCAARRIAPYGRYDYWGQGTQVTVSS | low polyreactivity
25 | QVQLVESGGGLVQAGGSLRLSCAASGFIFGYYAMGCYTQAPGKERELVARSTSSGGSTYYADSVKGRFTISRDNAKTTVYLQMNSLKPEDTAVYYCAKSPRAPRYMPYGYWGQGSQVTVSS | high polyreactivity
26 | QVQLVESGGGLVQAGGSLRLSCAASGRTFPRNGMGWYRQAAGKERELVAAICWSGGRTYYADSVKGRFTISRDNAKNTVYLQMNSLKPEDTAVYYCNALYFRKGGYWGQGTQVTVSS | high polyreactivity
27 | QVQLVESGGGLVQAGGSLRLSCAASGRIFRGNAMGWYRQAPGKERELVAAISNSGGRTYYADSVKGRFTISRDNAKNTVYVQMTSLKPEDTAVYYCNAVTYSRRYAYYYWGQGTQVTVSS | high polyreactivity
28 | QVQLVESGGGVLQAGGSLRLSCAASGRTFCFYAMGWSRQAPGKERELVASITWRGGRTYYADSVKGRFTISRDNAKNTVYLQMNSLKPEDTAVYYCAAVTFSYDGYDYWGQGTQVTVSS | low polyreactivity
29 | QDQLVESGGGLVQAGGSLRLSCAAYGSTFPVYTMGWYRQAPRKEREFVAAITGSGGRTYYADSVKGRFTISRDNAKNTVFLQMNSLKPEDTAVYYCNAYPKGRYAAAFPGMDYWGQGTQVTVSS | high polyreactivity
30 | QVQLVESGGGLVQAGGSLRLSCAASGRTFIYNVMGWYRQAPGKERELVASIRSSGGSTYYADSVKGRFTISRDNAKNTVYLQMNSLKPEDTAVYYCAADRSPGIRGWPGDYWGQGTQVTVSS | low polyreactivity
31 | QVQLVESGGGLFQAGGSLRLSCAASGIIFRGNAMGWYRQATVKERELVAAISKSGGRTYYADSVKGRFTISRDNAKNTVYLEMICLKPEDSAVYYCAARFYAVGGYDYWGQGTQVTVSS | high polyreactivity
32 | QVQLVESGGGLVQAGGSLRLSCAASGSTFYHNAMGWYRQAPGKERELVAAITTSGGSTYYADSVKGRFTISRDNAKNTVYLQMNSLKPEDTAVYYCNVYRPYLAPYDYWGQGTQVTVSS | low polyreactivity
33 | QVQLVESGGGLVQAGGSLRLSCAASGFIFPVNARGGSRQAPGKERELHADISSDGSTNYADSVKGRFTISRDNAKNTVYLQMNSLKPEDTAVYYCAREDNLRHQSDSRYDYWGQGTQVTVSS | low polyreactivity
34 | QVQLVESGGGLVQAGGSLRLSCAASGSILKNNAMGWYRLAPGKERELVAAITYSSGSTYYADSVKGRFTISRDNAKNTVYLQMNSLKPEDTAVYYCAAVYRYRYSFSGGYYWGQGTQVTVSS | low polyreactivity
35 | QVQLVESGGGIVQAGGSLRLSCAASGRIFVYNTMGWYRQAPGKEREFVAALSWRGGRTYYADSVKGRFTISRDNAKNTVYLQKNSLKPEDTAVYYCGADLKYYGYDYWGQGTHVTVSS | high polyreactivity
36 | QFQLVDSGGGLVQAGGSLRLSCAASGSTFGYYAMGWYRQATGKERELVAAISWRGGSTSYADSVKGRFTISRDNAKNTVYLQMNSLIPEDTAVYLCAAGGDINKYGRQYRYDYWGQGTQVTVSS | high polyreactivity
37 | QVQLVESGRGLVQAGGSLRLSCAASVGTFDKNAMGCYRQAPGNERELVAALTYGGGSTYYADSVKGRFTISRDNAKNTVYLQMNSLKPEDTAVYYCAVAIITYPYATGSSYDYWGQGTQVTVSS | low polyreactivity
38 | QDLLVESGGGLVQAGGSLGLSCAASGRIFSIYAMGWYRLAPGKERELVAAITRGGRTNYADSVKGRFTISRDNAKNTDYLQMISLKPEDTAVYYCADRLIDGVVKPYDYWGQGTQVTVSS | low polyreactivity
39 | QVQLVESGGGLVQAGGSLRLSCAASGSTFFGYAMGRYRQAPGKERELVAAISYRGGSTYYADSVKGRFTISRDNAKNTVYLQMNSLKPEDTAVYYCAATHGPTGSYYWGQGTQVTVSS | high polyreactivity
40 | QVQLVESGGGLVQAGGSLRLSCAASGSIFRGNAMGWYRQAPGKERELVAGINRAGSTKYADSVKGRFTISRDNAKNTVYLLMNSLKPEETAVYYCAARGYSSEYDYWGKGTQVTVSS | high polyreactivity
41 | QVQLVVSGGGLVQAGGRLRLSCAATGSTFSVNAMGWSRQAPGKERELVAAITRSGGSTYYADSVKGRFTFSRDNAKNSVYLQLNSLKPEDTAVYYCAAEIYPLGEYWGQGTQVTVSS | low polyreactivity
42 | QVQLVESGGGLVQAGGSLRLSCAASGSIFYYNAMGWYRQAPGKERELVAAISFRASSTYYADSVKGRFTISRDNAKNTVYLQMNSLKPEDTAVYYCASSHWHYIPRHHPYGDDYCGQGTQVTVSS | low polyreactivity
43 | QVQLVESGGGLVQAGGSLRLSCAASGRTFWANTMGWYRQAPGKEREFVAAISGRDVSTYYADSVKGRFTISRDNAMNTVYLQMNSLKPEDTAVYYCAAGNLYYAEYDYWGQGTQVTVSS | low polyreactivity
